The target in the assay is natural cellular receptor for adenovirus on 293 human cells (human). Kind of assay: cell-based or functional assay.

In the case of “native Ad5 fiber carried by the recombinant AdLacZ virus (from UniProt P11818 1-581)”, the degree of inhibition of the infection of 293-cells with AdLacZ by recombinant Ad5 knob at 100 µg/ml was 95%.

The values are drawn from patent US7560527.
